Test results taken from the RNAGym collection of RNA variant scans (doi:10.1021/acssynbio.7b00057).

B1: Pistol ribozyme (parent)
chain: GGGUCGUUGUUCCAUAAUCGCGUGGAUAUGGCACGCAAGUUUCUACCGGGCACCGUAAAUGUCCGACUGGAGCCGUUCGGGCGGCUAUAAACAGACCUCAGGCCCGAAGCGUGGCGGCACCUGCCGCCGGUGGUAAAAAAGAUCGGAAGAGCACACGUCU

Variants of: B1
Experiment: aptazyme ON/OFF ratio, guanine; higher = stronger switching; co-transcriptional cleavage with and without guanine

Row | Variant | aptazyme ON/OFF ratio
1 | U8C U11G C12U | 1.26
2 | U8G G9A U11G C12U | 1.34
3 | U8G G9A U11G C12G | 1.23
4 | U8G G9A U11G C12A | 1.08
5 | U8C U11A C12G C13A | 1.1
6 | U8C U11A C12G C13U | 1.14
7 | U8C U11A C12G C13G | 1.16
8 | U8G G9A U10C U11C C12U C13A | 1.04
9 | U8G G9A U10C U11C C12U C13G | 1.04
10 | U8G G9A U10C U11C C12U C13U | 1.03
11 | U8C U11C C12G C13G | 1.36
12 | U8C U11C C12G C13A | 1.37
13 | U8C U11C C12G C13U | 1.36
14 | U8G G9A U11G C12G C13A | 1.27
15 | U8G G9A U11G C12G C13G | 1.57
16 | U8G G9A U11G C12G C13U | 1.23
17 | U8G G9A U10C C12G C13U | 1.33
18 | U8G G9A U10C C12G C13G | 1.2
19 | U8G G9A U10C C12G C13A | 1.21
20 | U8G G9A U10G U11A C12U C13U | 1.47
21 | U8G G9A U10G U11A C12U C13G | 1.33

Row | Variant | aptazyme ON/OFF ratio
22 | U8G G9A U10G U11A C12U C13A | 1.34
23 | U8G G9A U11A | 1.59
24 | U8G G9A U11G | 1.18
25 | U8G G9A U11C | 1.05
26 | U8C U11G C13A | 1.05
27 | U8C U11G C13U | 1.17
28 | U8C U11G C13G | 1.06
29 | U8G G9C C12G | 1.05
30 | U8G G9C C12A | 1.07
31 | U8G G9C C12U | 1.07
32 | U8G G9A U10G U11C C12U C13G | 1.2
33 | U8G G9A U10G U11C C12U C13U | 1.06
34 | U8G G9A U10G U11C C12U C13A | 1.06
35 | U8C U11A C12U C13U | 1.13
36 | U8C U11A C12U C13A | 1.21
37 | U8C U11A C12U C13G | 1.18
38 | U8G G9A U10A U11C C13A | 1.08
39 | U8G G9A U10A U11C C13G | 1.04
40 | U8G G9A U10A U11C C13U | 1.01
41 | U8G C12U | 1.64
42 | U8G C12G | 1.52

Row | Variant | aptazyme ON/OFF ratio
43 | U8G C12A | 1.69
44 | U8G G9A U10A U11G C12U C13G | 1.25
45 | U8G G9A U10A U11G C12U C13A | 1.31
46 | U8G G9A U10A U11G C12U C13U | 1.56
47 | U8C U11C C12A | 1.14
48 | U8C U11C C12G | 1.34
49 | U8C U11C C12U | 1.55
50 | U8G | 3.01
51 | U8G G9A | 1.64
52 | U8G G9C | 1.09
53 | U8C U11G C12G C13G | 1.19
54 | U8C U11G C12G C13A | 1.13
55 | U8C U11G C12G C13U | 1.11
56 | U8G G9A U10G U11G C12U | 1.12
57 | U8G G9A U10G U11G C12A | 1.32
58 | U8G G9A U10G U11G C12G | 1.33
59 | U8G G9A U10C C13U | 1.07
60 | U8G G9A U10C C13A | 1.04
61 | U8G G9A U10C C13G | 1.03
62 | U8G G9A U10G U11G C12A C13G | 1.16
63 | U8G G9A U10G U11G C12A C13U | 1.41

Row | Variant | aptazyme ON/OFF ratio
64 | U8G G9A U10G U11G C12A C13A | 1.57
65 | U8G G9A U11C C12U C13U | 1.13
66 | U8G G9A U11C C12U C13A | 1.25
67 | U8G G9A U11C C12U C13G | 1.27
68 | U8G G9A U10G C12U C13A | 1.32
69 | U8G G9A U10G C12U C13G | 1.16
70 | U8G G9A U10G C12U C13U | 1.18
71 | U8G G9A U10G U11G C13G | 1.15
72 | U8G G9A U10G U11G C13A | 1.56
73 | U8G G9A U10G U11G C13U | 1.45
74 | U8G G9A U10C U11A C12A | 1.22
75 | U8G G9A U10C U11A C12G | 1.14
76 | U8G G9A U10C U11A C12U | 1.1
77 | U8G G9A U10A U11G C13G | 1.07
78 | U8G G9A U10A U11G C13U | 1.06
79 | U8G G9A U10A U11G C13A | 1.23
80 | U8G G9A U10A C12U C13A | 1.15
81 | U8G G9A U10A C12U C13U | 1.29
82 | U8G G9A U10A C12U C13G | 1.31
83 | U8C U11G C12U C13G | 1.07
